Measured values reported in PMC4393111.
One block for each substance: values may come before it.

Experiments:
[1] = target: CFP-RBD-YFP (Rab8-binding domain of Rabin8 between CFP and YFP) (human)
[2] = target: CFP-RBD-YFP (Rab8-binding domain of Rabin8 between CFP and YFP) (human); remark: listed apart in the source
[3] = target: GFP-Dzip1 (full-length mouse Dzip1) (mouse) (UniProt Q8BMD2); experiment: co-IP; both partners co-expressed with tags in HEK 293T cells (some in G0 phase; some treated with the GSK3 inhibitors BIO or CHIR99021, the CK1 inhibitor D4476 or the CK2 inhibitor CX4945); IP of the GFP-, CFP/YFP-tagged partner; IP buffer 0.1% NP-40, 50 mM HEPES pH 7.00, 125 mM NaCl, 4°C
GFP-Rab8^T22N = GFP-Rab8^T22N (UniProt P61006); experiment: as above
Chain of UniProt P61006 (P61006 whole entry T22N): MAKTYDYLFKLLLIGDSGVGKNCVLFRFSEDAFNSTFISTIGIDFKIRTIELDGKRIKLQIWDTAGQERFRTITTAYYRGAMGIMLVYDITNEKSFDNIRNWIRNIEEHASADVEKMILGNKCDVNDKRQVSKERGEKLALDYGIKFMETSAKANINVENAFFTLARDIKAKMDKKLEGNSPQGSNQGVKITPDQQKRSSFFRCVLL

FE^CFP after YFP photo-bleaching (AB-FRET of the reporter CFP-RBD-YFP) around the cilium base, G0-phase NIH 3T3 RNAi control cells [1]: 9.3%
FE^CFP after YFP photo-bleaching (AB-FRET of the reporter CFP-RBD-YFP) at the basal body, G0-phase NIH 3T3 cells treated with the GSK3 inhibitor BIO [2]: 3.3%
FE^CFP after YFP photo-bleaching (AB-FRET of the reporter CFP-RBD-YFP) at the basal body, G0-phase NIH 3T3 cells treated with the GSK3 inhibitor CHIR99021 [2]: 2.6%
FE^CFP after YFP photo-bleaching (AB-FRET of the reporter CFP-RBD-YFP) at the basal body, G0-phase NIH 3T3 cells, untreated control [2]: 4.8%
Substance: endogenous Rab8 of NIH 3T3 cells (from UniProt P55258 1-207) (natural protein)

fold co-immunoprecipitated against Rab8^Q67L [3]: 3.5 fold
Substance: Flag-Rab8^T22N (from UniProt P61006 1-207) (natural protein)

fold co-immunoprecipitated against wild-type Rab8 (GFP-Rab8^T22N): 5 fold
Substance: Myc-Dzip1 (from UniProt Q8BMD2 1-852) (natural protein)
